Test results reported in patent publication US20230220115A1.

Assays:
[1] = target: CD20 Lipoparticles (UniProt P11836)
[2] = target: recombinant human Fc gamma receptor CD32b/c (human) (UniProt P31994)
[3] = target: recombinant human Fc gamma receptor CD16b (FcRγIIIb) (human) (UniProt O75015)
[4] = target: recombinant human Fc gamma receptor CD16a 158V (FcRγIIIa) (human) (UniProt P08637)
[5] = target: recombinant human Fc gamma receptor CD32a 131R (human) (UniProt P12318)
[6] = target: recombinant human Fc gamma receptor CD32a 131H (human) (UniProt P12318)
[7] = target: recombinant human Fc gamma receptor CD64 (FcRγI) (human) (UniProt P12314)
Sequence of recombinant human Fc gamma receptor CD64 (FcRγI) (human) (P12314 16-288 limits assumed): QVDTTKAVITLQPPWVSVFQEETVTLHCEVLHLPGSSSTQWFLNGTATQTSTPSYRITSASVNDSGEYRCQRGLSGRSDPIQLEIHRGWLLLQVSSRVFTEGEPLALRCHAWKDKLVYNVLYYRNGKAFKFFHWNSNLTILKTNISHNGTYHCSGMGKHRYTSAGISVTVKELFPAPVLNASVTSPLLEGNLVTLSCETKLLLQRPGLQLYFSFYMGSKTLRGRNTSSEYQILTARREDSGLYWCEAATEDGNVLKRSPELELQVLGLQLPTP

Sequence of recombinant human Fc gamma receptor CD32a 131R (human) (P12318 36-218 H167R): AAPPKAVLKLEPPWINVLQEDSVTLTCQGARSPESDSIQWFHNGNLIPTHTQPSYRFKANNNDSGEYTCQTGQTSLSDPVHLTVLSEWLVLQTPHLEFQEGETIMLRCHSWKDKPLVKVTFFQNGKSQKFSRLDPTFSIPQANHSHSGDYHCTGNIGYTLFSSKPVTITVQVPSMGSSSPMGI
Sequence of CD20 Lipoparticles (P11836 whole entry): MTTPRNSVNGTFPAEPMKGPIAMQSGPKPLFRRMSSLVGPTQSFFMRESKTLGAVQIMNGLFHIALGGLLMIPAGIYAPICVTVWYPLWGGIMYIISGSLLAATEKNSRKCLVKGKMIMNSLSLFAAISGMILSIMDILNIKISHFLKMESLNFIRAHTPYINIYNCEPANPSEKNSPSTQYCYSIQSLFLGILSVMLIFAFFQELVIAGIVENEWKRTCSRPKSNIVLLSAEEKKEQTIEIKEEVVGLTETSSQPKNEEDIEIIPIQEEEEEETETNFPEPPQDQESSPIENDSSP
Sequence of recombinant human Fc gamma receptor CD32b/c (human) (P31994 46-217): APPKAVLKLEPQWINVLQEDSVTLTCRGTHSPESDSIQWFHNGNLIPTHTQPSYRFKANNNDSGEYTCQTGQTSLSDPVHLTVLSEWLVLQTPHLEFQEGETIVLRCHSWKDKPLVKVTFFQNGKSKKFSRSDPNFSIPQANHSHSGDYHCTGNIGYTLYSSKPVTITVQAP
Sequence of recombinant human Fc gamma receptor CD16a 158V (FcRγIIIa) (human) (P08637 17-208 F176V limits assumed): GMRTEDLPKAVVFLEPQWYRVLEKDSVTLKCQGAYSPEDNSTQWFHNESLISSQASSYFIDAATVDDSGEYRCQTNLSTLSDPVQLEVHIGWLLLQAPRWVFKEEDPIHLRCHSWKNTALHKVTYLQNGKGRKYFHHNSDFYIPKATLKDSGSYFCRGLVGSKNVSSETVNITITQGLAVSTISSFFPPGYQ
Sequence of recombinant human Fc gamma receptor CD16b (FcRγIIIb) (human) (O75015 17-200 limits assumed): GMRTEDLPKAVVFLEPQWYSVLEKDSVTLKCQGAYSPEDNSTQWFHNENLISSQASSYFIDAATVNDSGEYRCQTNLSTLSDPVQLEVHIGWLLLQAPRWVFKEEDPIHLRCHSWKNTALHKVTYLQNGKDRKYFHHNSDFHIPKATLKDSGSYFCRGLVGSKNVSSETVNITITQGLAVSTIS
Sequence of recombinant human Fc gamma receptor CD32a 131H (human) (P12318 36-218): as the sequence (P12318 36-218 H167R) above, with R132H counted along it

Kd [1]: < 0.001 nM
Kd [2]: 1520 nM
Kd [3]: 1530 nM
Kd [4]: 715 nM
Kd [5]: 1250 nM
Kd [6]: 892 nM
Kd [7]: 52.8 nM
Substance: Rituxan (antibody)
